Experimental data published in paper PMC5070708.
Where “and” joins values, the source holds several entries; their conditions need not be identical. Equal values may be shown once.

Biological target: ILz(6):TRAIL (human) (UniProt P50591)
Experiment: SEC

stoichiometry N: 3 and 6
Substance: ILz(6):TRAIL (from UniProt P50591 114-281) (ligand)
